Where no end group is shown, it is not given here.
T1: Peptide-30 (cysteine pairing not given here; also: biotinylated, site not given here)
T1 peptide: TSLICFRNVYCWNV

T2: Peptide-11 (cysteine pairing not given here; also: biotinylated (site not given here))
T2 peptide: VDFCALYNWPVCET

T3: Peptide-15 (cysteine pairing not given here; also: biotinylated (site not given here))
T3 peptide: LDFCKLYQWPVCFT

T4: Peptide-16 (cysteine pairing not given here; also: biotinylated (site not given here))
T4 peptide: IDFCLLYDWPVCAS

T5: Peptide-24 (cysteine pairing not given here; also: biotinylated (site not given here))
T5 peptide: SVLFCVKNLYCWVT

T6: Peptide-19 (cysteine pairing not given here; also: biotinylated (site not given here))
T6 peptide: PDFCQLYNWPVCAG

T7: Peptide-21 (cysteine pairing not given here; also: biotinylated (site not given here))
T7 peptide: IDFCSLYQWPVCGT

T8: Peptide-22 (cysteine pairing not given here; also: biotinylated (site not given here))
T8 peptide: VDFCTIYKWPVCEG

T9: Peptide-44 (cysteine pairing not given here; also: biotinylated, site not given here)
T9 peptide: VEFCKQWTWFGCMT

T10: Peptide-58 (cysteine pairing not given here; also: biotinylated, site not given here)
T10 peptide: VEICKQWFYTVCLS

T11: Peptide-25 (cysteine pairing not given here; also: biotinylated (site not given here))
T11 peptide: VDFCKIYSWPVCHQ

T12: Peptide-29 (cysteine pairing not given here; also: biotinylated, site not given here)
T12 peptide: SYLVCVKNVYCWTA


Key:
Peptide-30 = target: T1, Peptide-30; experiment: ELISA, Fab on captured biotin-peptide
Procedure: (§1) Binding was measured in a standard ELISA format. […] Bound TBDs were detected using a standard horse radish peroxidase conjugate secondary antibody. The ELISA signal was plotted versus the log-scale concentration of TBD. The concentrations of TBD required to observe half maximal binding signal (EC₅₀s) were calculated using Graphpad Prism software.

Peptide-11 = target: T2, Peptide-11; experiment: ELISA: biotinylated peptide captured on neutravidin plate, Fab titrated, HRP secondary antibody
Procedure: as §1

Peptide-15 = target: T3, Peptide-15; experiment: as above
Procedure: as §1

Peptide-16 = target: T4, Peptide-16; experiment: as above
Procedure: as §1

Peptide-24 = target: T5, Peptide-24; experiment: as above
Procedure: as §1

Peptide-19 = target: T6, Peptide-19; experiment: as above
Procedure: as §1

Peptide-21 = target: T7, Peptide-21; experiment: as above
Procedure: as §1

Peptide-22 = target: T8, Peptide-22; experiment: as above
Procedure: as §1

Peptide-44 = target: T9, Peptide-44; experiment: ELISA, Fab on captured biotin-peptide
Procedure: as §1

Peptide-58 = target: T10, Peptide-58; experiment: ELISA, Fab on captured biotin-peptide
Procedure: as §1

Peptide-25 = target: T11, Peptide-25; experiment: ELISA, Fab on captured biotin-peptide; Table 19 peptide set (separate ELISA run)
Procedure: as §1

Peptide-29 = target: T12, Peptide-29; experiment: ELISA: biotinylated peptide captured on neutravidin plate, Fab titrated, HRP secondary antibody
Procedure: as §1

Row | EC50 (Peptide-30) [nM] | binding result (Peptide-11) | binding result (Peptide-15) | binding result (Peptide-16) | binding result (Peptide-24) | binding result (Peptide-19) | binding result (Peptide-21) | binding result (Peptide-22) | EC50 (Peptide-44) [nM] | EC50 (Peptide-58) [nM] | EC50 (Peptide-25) [nM] | binding result (Peptide-29) | Binder
1 | 9.1 | binds | binds | binds | binds | binds | binds | binds | – | – | – | – | TBD-1 wt (Fab, V domains shown, Fab; the heavy chain entry is VH-CH1; also called wild-type anti-TROP2 Fab (hRS7); TROP2 Fab) VH: QVQLQQSGSELKKPGASVKVSCKASGYTFTNYGMNWVKQAPGQGLKWMGWINTYTGEPTYTDDFKGRFAFSLDTSVSTAYLQISSLKADDTAVYFCARGGFGSSYWYFDVWGQGSLVTVSS VL: DIQLTQSPSSLSASVGDRVSITCKASQDVSIAVAWYQQKPGKAPKLLIYSASYRYTGVPDRFSGSGSGTDFTLTISSLQPEDFAVYYCQQHYITPLTFGAGTKVEIKR
2 | – | – | – | – | – | – | – | – | 112 | 10.7 | 453 | binds | TBD-11 (HC R98A) (Fab, V domains shown, Fab; also called HC R98A mutant) VH: QVQLQQSGSELKKPGASVKVSCKASGYTFTNYGMNWVKQAPGQGLKWMGWINTYTGEPTYTDDFKGRFAFSLDTSVSTAYLQISSLKADDTAVYFCAAGGFGSSYWYFDVWGQGSLVTVSS VL: DIQLTQSPSSLSASVGDRVSITCKASQDVSIAVAWYQQKPGKAPKLLIYSASYRYTGVPDRFSGSGSGTDFTLTISSLQPEDFAVYYCQQHYITPLTFGAGTKVEIKR

From patent US20230357429A1 (JANUX THERAPEUTICS, published 2023)
